The target of assay [1] is T1, SARS-CoV-2 S1 (Acro) (SARS-CoV-2, UniProt P0DTC2 16-685).
T1 construct: also called Acro S1
In words: SPR (Carterra).

In assay [2] the target is T1, SARS-CoV-2 S1 (Acro). The assay can be described thus: SPR (Carterra). This is another data set of the same source.

Where two headings read alike, the source gives them in different places.

This passage reports Kd results from patent publication US20230192818A1 (TWIST BIOSCIENCE, published 2023).

B1: 3-31 (Fc fusion)
chain: EVQLVESGGGLVQPGGSLRLSCAASGSTFSINAMGWFRQAPGKEREFVAGITSSGGYTNYADSVKGRFTISADNSKNTAYLQMNSLKPEDTAVYYCAADGVPEYSDYASGPVWGQGTLVTVSS
notes: also called Antibody 3-31
As for B1, the Kd in assay [1] and in assay [2] was 21 nM throughout.

B2: 15-3 (Fc fusion)
chain: EVQLVESGGGLVQPGGSLRLSCAASGFTFSPSWMGWFRQAPGKEREFVATINEYGGRNYADSVKGRFTISADNSKNTAYLQMNSLKPEDTAVYYCARVDRDFDYWGQGTLVTVSS
notes: also called Antibody 15-3; Antibody 15 parent
On to B2, for which the affinity in assay [1], expressed as Kd, was 31.5 nM.
